From US20240150495A1 come the findings set out here.

Assay [1] deals with T1, synthetic peptide Rp10-L, a mimotope of B-cell molecular marker CD20.
T1 sequence (peptide): ITPWPHWLERSS
The assay can be described thus: ELISA, periplasmic extract, Rp10-L 0.81 µg/ml; well without peptide 0.265. (In general: An ELISA detects its analyte on a solid surface through an enzyme-linked reagent.)

Assay [2] has the same target. The assay is described as follows: ELISA, periplasmic extract, Rp10-L 1.63 µg/ml; well without peptide 0.265.
Assay [3] has the same target. The assay is described as follows: ELISA, periplasmic extract, Rp10-L 12.5 µg/ml; well without peptide 0.265.
Assay [4] has the same target. The assay is described as follows: ELISA, periplasmic extract, Rp10-L 25.0 µg/ml; well without peptide 0.265.
The target is the same in assay [5]. The assay can be described thus: ELISA, periplasmic extract, Rp10-L 3.13 µg/ml; well without peptide 0.265.
Assay [6] shares this target. The assay can be described thus: ELISA, periplasmic extract, Rp10-L 50.0 µg/ml; well without peptide 0.265.
For assay [7] the target is unchanged. The assay is described as follows: ELISA, periplasmic extract, Rp10-L 6.25 µg/ml; well without peptide 0.265.
The target is the same in assay [8]. The assay is described as follows: ELISA, periplasmic lysate on coated Rp10-L, single well; plate A background 0.027.
Assay [9] shares this target. The assay can be described thus: ELISA, periplasmic extract, Rp10-L 0.81 µg/ml; well without peptide 0.469.
Assay [10] shares this target. The assay is described as follows: ELISA, periplasmic extract, Rp10-L 1.63 µg/ml; well without peptide 0.469.
For assay [11] the target is unchanged. The assay is described as follows: ELISA, periplasmic extract, Rp10-L 12.5 µg/ml; well without peptide 0.469.
Assay [12] has the same target. The assay can be described thus: ELISA, periplasmic extract, Rp10-L 25.0 µg/ml; well without peptide 0.469.
Assay [13] shares this target. The assay is described as follows: ELISA, periplasmic extract, Rp10-L 3.13 µg/ml; well without peptide 0.469.
The target is the same in assay [14]. The assay can be described thus: ELISA, periplasmic extract, Rp10-L 50.0 µg/ml; well without peptide 0.469.
Assay [15] shares this target. The assay can be described thus: ELISA, periplasmic extract, Rp10-L 6.25 µg/ml; well without peptide 0.469.
Assay [16] has the same target. The assay can be described thus: ELISA, periplasmic lysate on coated Rp10-L, single well; plate D background 0.035.

B1: CH3 clone A21 (mutated human IgG1 CH3 domain, CH3+3 library) (designed binder, not shown: small tags and cut ends)
chain: MAPREPQVYTLPPSRDELVDGQVSLTCLVKGFYPSDIAVEWESNGQPENNYKTTPPVLDSDGSFFLYSKLTVPWGPRDRWWPGNVFSCSVMHEALHNHYTQKSLSLSPGKAAA
Regarding B1, the ELISA absorbance was found to be 0.362 in assay [1]; 0.383 in assay [2]; 0.315 in assay [3]; 0.335 in [4]; 0.352 in [5]; 0.398 in [6]. In assay [7], this molecule returned an ELISA absorbance of 0.343. Also, the A492/620 in assay [8] was found to be 0.395 A492/620.

B2: CH3 clone D39 (mutated human IgG1 CH3 domain, CH3+3 library) (designed binder, not shown: small tags and cut ends)
chain: MAPREPQVYTLPPSRDELGWWQVSLTCLVKGFYPSDIAVEWESNGQPENNYKTTPPVLDSDGSFFLYSKLTVQQKPFARWTDGNVFSCSVMHEALHNHYTQKSLSLSPGKAAA
Regarding B2, the ELISA absorbance was found to be 0.66 in assay [9]; 0.719 in assay [10]; 0.77 in assay [11]; 0.868 in [12]; 0.719 in [13]; 0.765 in assay [14]. This molecule showed an ELISA absorbance in assay [15] of 0.694. For the same molecule, in assay [16], the A492/620 was determined as 0.448 A492/620.
